# IntAct's records for PubMed 22609948
# B1: Segment polarity protein dishevelled homolog DVL-2 (Mus musculus), Q60838 (parent)
# chain: MAGSSAGGGGVGETKVIYHLDEEETPYLVKIPVPAERITLGDFKSVLQRPAGAKYFFKSMDQDFGVVKEEISDDNARLPCFNGRVVSWLVSSDTPQPEVAPPAHESRTELVPPPPPLPPLPPERTSGIGDSRPPSFHPNVSSSHENLEPETETESVVSLRRDRPRRRDSSEHGAGGHRPGGPSRLERHLAGYESSSTLMTSELESTSLGDSDEDDTMSRFSSSTEQSSASRLLKRHRRRRKQRPPRMERTSSFSSVTDSTMSLNIITVTLNMEKYNFLGISIVGQSNERGDGGIYIGSIMKGGAVAADGRIEPGDMLLQVNDMNFENMSNDDAVRVLRDIVHKPGPIVLTVAKCWDPSPQAYFTLPRNEPIQPIDPAAWVSHSAALTGAFPAYPGSSSMSTITSGSSLPDGCEGRGLSVHMDMASVTKAMAAPESGLEVRDRMWLKITIPNAFLGSDVVDWLYHHVEGFPERREARKYASGLLKAGLIRHTVNKITFSEQCYYVFGDLSGGCESYLVNLSLNDNDGSSGASDQDTLAPLPGATPWPLLPTFSYQYPAPHPYSPQPPPYHELSSYTYGGGSASSQHSEGSRSSGSTRSDGGAGRTGRPEERAPESKSGSGSESELSSRGGSLRRGGEPGGTGDGGPPPSRGSTGAPPNLRALPGLHPYGAPSGMALPYNPMMVVMMPPPPPPVSTAVQPPGAPPVRDLGSVPPELTASRQSFHMAMGNPSEFFVDVM
# Variants of: B1
# Conditions: with plk1_human PLK1, P53350
# plk1_human PLK1, P53350, sequence (P53350 whole entry): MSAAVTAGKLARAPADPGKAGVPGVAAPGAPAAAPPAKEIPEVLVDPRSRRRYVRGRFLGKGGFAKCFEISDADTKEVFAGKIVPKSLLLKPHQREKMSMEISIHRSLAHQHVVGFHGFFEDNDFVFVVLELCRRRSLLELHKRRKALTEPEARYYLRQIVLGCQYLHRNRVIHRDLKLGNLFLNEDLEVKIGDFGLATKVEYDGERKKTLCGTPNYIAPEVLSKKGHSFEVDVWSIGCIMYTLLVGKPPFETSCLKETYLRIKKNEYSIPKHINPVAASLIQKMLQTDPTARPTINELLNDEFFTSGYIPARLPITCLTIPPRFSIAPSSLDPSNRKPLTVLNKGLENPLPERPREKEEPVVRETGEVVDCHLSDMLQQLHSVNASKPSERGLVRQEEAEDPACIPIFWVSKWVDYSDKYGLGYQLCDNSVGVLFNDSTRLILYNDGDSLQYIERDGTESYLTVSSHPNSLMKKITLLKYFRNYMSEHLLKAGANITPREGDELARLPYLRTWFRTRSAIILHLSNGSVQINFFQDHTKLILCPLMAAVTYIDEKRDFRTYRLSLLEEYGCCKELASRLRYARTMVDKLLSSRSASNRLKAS
row,effect of a mutation on the interaction,Variant
1,decreasing interaction,T224A

# Variants of: B1
# Conditions: with plk1_human PLK1, P53350
# Remark: another data set of the same source
row,effect of a mutation on the interaction,Variant
1,decreasing interaction,T224E

# Variants of: B1
# Conditions: with plk1_human PLK1, P53350
# Remark: another data set of the same source
row,effect of a mutation on the interaction,Variant
1,disrupting interaction,T224D

# Variants of: B1
# Conditions: with plk1_human PLK1, P53350
# Remark: another data set of the same source
row,effect of a mutation on the interaction,Variant
1,decreasing interaction,S398A

# Variants of: B1
# Conditions: with plk1_human PLK1, P53350
# Remark: another data set of the same source
row,effect of a mutation on the interaction,Variant
1,disrupting interaction,S143D

# Variants of: B1
# Conditions: with plk1_human PLK1, P53350
# Remark: another data set of the same source
row,effect of a mutation on the interaction,Variant
1,disrupting interaction,S143A
